{
  "source": "paper doi:10.1101/197186",
  "about": "(bioRxiv, 2017)",
  "proteins": {"B1": {"name": "human MORC2(1-603) S87L (domain or fragment)", "chain": "MAFTNYSSLNRAQLTFEYLHTNSTTHEFLFGALAELVDNARDADATRIDIYAERREDLRGGFMLCFLDDGAGMDPSDAASVIQFGKLAKRTPESTQIGQYGNGLKSGSMRIGKDFILFTKKEDTMTCLFLSRTFHEEEGIDEVIVPLPTWNARTREPVTDNVEKFAIETELIYKYSPFRTEEEVMTQFMKIPGDSGTLVIIFNLKLMDNGEPELDIISNPRDIQMAETSPEGTKPERRSFRAYAAVLYIDPRMRIFIHGHKVQTKRLSCCLYKPRMYKYTSSRFKTRAEQEVKKAEHVARIAEEKAREAESKARTLEVRLGGDLTRDSRVMLRQVQNRAITLRREADVKKRIKEAKQRALKEPKELNFVFGVNIEHRDLDGMFIYNCSRLIKMYEKVGPQLEGGMACGGVVGVVDVPYLVLEPTHNKQDFADAKEYRHLLRAMGEHLAQYWKDIAIAQRGIIKFWDEFGYLSANWNQPPSSELRYKRRRAMEIPTTIQCDLCLKWRTLPFQLSSVEKDYPDTWVCSMNPDPEQDRCEASEQKQKVPLGTFRKDMKTQEEKQKQLTEKIRQQQEKLEALQKTTPIRSQADLKKLPLEVTTRPST"}},
  "biological_target": "the molecule itself",
  "experiment": "SEC",
  "data": [
    {"protein": "B1", "values": [
      {"measurement": "stoichiometry N", "result": 2}
    ]}
  ]
}
